In this assay the target is SARS-CoV-2 spike (S) protein on pseudotyped HIV-1 reporter virus (SARS-CoV-2) (UniProt P0DTC2). The assay can be described thus: cell-based or functional assay.

Chain of C144 (antibody) (VH): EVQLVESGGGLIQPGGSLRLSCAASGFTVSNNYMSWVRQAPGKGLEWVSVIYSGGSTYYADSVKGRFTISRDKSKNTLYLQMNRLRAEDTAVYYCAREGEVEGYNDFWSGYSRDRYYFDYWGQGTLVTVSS
Chain of C144 (antibody) (VL): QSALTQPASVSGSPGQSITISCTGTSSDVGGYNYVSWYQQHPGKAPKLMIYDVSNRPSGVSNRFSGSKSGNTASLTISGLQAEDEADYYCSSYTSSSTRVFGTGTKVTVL

Usually IC50 stands for the concentration that gives 50% inhibition. The IC90 is the concentration needed for an effect of 90%. Low readings indicate an effect from little substance, high ones a need for much substance. Take C144 (antibody): the IC50 amounted to 0.00286 µg/mL and the IC90 was determined as 0.0405 µg/mL.

The values above are taken from patent publication US20220195015A1.
